B1: rIL-12: Recombinantly expressed murine IL-12 (Genetics Institute) (protein, UniProt P43431 23-215; P43432 23-335, looked up)
Interleukin-12 subunit alpha: RVIPVSGPARCLSQSRNLLKTTDDMVKTAREKLKHYSCTAEDIDHEDITRDQTSTLKTCLPLELHKNESCLATRETSSTTRGSCLPPQKTSLMMTLCLGSIYEDLKMYQTEFQAINAALQNHNHQQIILDKGMLVAIDELMQSLNHNGETLRQKPPVGEADPYRVKMKLCILLHAFSTRVVTINRVMGYLSSA
Interleukin-12 subunit beta: MWELEKDVYVVEVDWTPDAPGETVNLTCDTPEEDDITWTSDQRHGVIGSGKTLTITVKEFLDAGQYTCHKGGETLSHSHLLLHKKENGIWSTEILKNFKNKTFLKCEAPNYSGRFTCSWLVQRNMDLKFNIKSSSSSPDSRAVTCGMASLSAEKVTLDQRDYEKYSVSCQEDVTCPTAEETLPIELALEARQQNKYENYSTSFFIRDIIKPDPPKNLQMKPLKNSQVEVSWEYPDSWSTPHSYFSLKFFVRIQRKKEKMKETEEGCNQKGAFLVEKTSTEVQCKGGNVCVQAQDRYYNSSCSKWACVPCRVRS
B2: GM-CSF: Recombinant murine granulocyte macrophage colony stimulating factor (protein, UniProt P01587 18-141, looked up)
Granulocyte-macrophage …: APTRSPITVTRPWKHVEAIKEALNLLDDMPVTLNEEVEVVSNEFSFKKLTCVQTRLKIFEQGLRGNFTKLKGALNMTASYYQTYCPPTPETDCETQVTTYADFIDSLKTFLTDIPFECKKPGQK

Tests used:
[1] = system: spleen cells; assay: Secretion of interferon-gamma by spleen cells (ELISA); assay type: cell-based, Balb/c mice; conditions: for Secretion of Interferon-gamma, Con A 5 μg/ml / Secretion of Interferon-gamma, HIV Peptide 1.1 μg/ml / Secretion of Interferon-gamma, HIV Peptide 3.3 μg/ml / Secretion of Interferon-gamma, HIV Peptide 10 μg/ml: Experiment 2, 96 hours culture, after subtraction of lysozyme value; for Secretion of Interferon-gamma, HIV Peptide 1.1 μg/ml / Secretion of Interferon-gamma, HIV Peptide 3.3 μg/ml / Secretion of Interferon-gamma, HIV Peptide 10 μg/ml: bd = below limit of detection; for Secretion of Interferon-gamma, Con A 1 μg/ml: Experiment 1
Protocol: (§1) For proliferation assays and in vitro cytokine analysis, spleen cells were obtained from mice at the indicated time points. Single cell suspensions were prepared from pools of 3-5 mice as indicated in Results. For proliferation and cytokine analysis, cells were suspended in round bottom 96 well culture plates precoated overnight with HIV peptide antigens, control proteins, or RPMI-10 only. Spleen cells were added at 5×10^5 cells/well using culture medium having 2× supplements. Cell culture supernatants were harvested from triplicate wells for cytokine analysis three or six days after culture initiation. Immediately after supernatant harvest, cultures were pulsed with ^3H-thymidine for 18-24 hours, and harvested to quantify cell proliferation.
(§2) For cytokine analysis, cell culture supernatants were added to wells coated with BVD6-11B11 (for anti-IL4), or R4-6A2 (for interferon-gamma). After incubation and washing, wells were developed using biotin-labeled BVD6-24G2 (for IL4) or XMG 1.2 (for interferon-gamma). The concentration of cytokines was determined using a standard curve prepared from recombinant murine interferon-gamma or interleukin-4. All cytokine reagents were purchased from Pharmingen (San Diego, Calif.).
Interferon-gamma secreted into culture by spleen cells stimulated with 25 μg T1SP10MN(A) (−Cys). Spleen cells were harvested from pools of five Balb/c female mice and cultured with the indicated antigenic stimuli (the same as in Example 6) for either three or six days. Interferon-gamma levels were determined by ELISA, and compared to a standard having a known concentration. Blank wells indicate that the assay could not detect Interferon-gamma from those culture conditions. The lower limit of detection sensitivity was 4 picograms/ml.
Cells were cultured for a total of 96 hours. Cell culture supernatants were analyzed for interferon-gamma by ELISA. All values were after subtraction from those determined from supernatants of cells stimulated with 10 μg of lysozyme. Results which were below the limit of detection, after subtraction from stimulation induced with lysozyme are indicated as “bd”. The adjuvants were the same as those in Example 12.

[2] = system: spleen cells; assay: Secretion of IL-4 by spleen cells (ELISA); assay type: cell-based, Balb/c mice; conditions: for Secretion of IL-4, Con A 5 μg/ml / Secretion of IL-4, HIV Peptide 1.1 μg/ml / Secretion of IL-4, HIV Peptide 3.3 μg/ml / Secretion of IL-4, HIV Peptide 10 μg/ml: Experiment 2, 96 hours culture, after subtraction of lysozyme value; for Secretion of IL-4, HIV Peptide 1.1 μg/ml / Secretion of IL-4, HIV Peptide 3.3 μg/ml / Secretion of IL-4, HIV Peptide 10 μg/ml: bd = below limit of detection; for Secretion of IL-4, Con A 1 μg/ml: Experiment 1, Three Day Cultures, detection limit 22 Units/ml
Protocol: as §1, §2
Interleukin-4 secreted into culture by spleen cells stimulated with 25 μg T1SP10MN(A) (−Cys) was measured. Spleen cells were harvested from pools of five Balb/c female mice and cultured with the indicated antigenic stimuli (50 ng IL-12, 10 μg GM-CSF, 50 μg MPL™ as indicated) for either three or six days. Interleukin-4 levels were determined by ELISA, and compared to a standard having a known concentration. Blank wells indicate that the assay could not detect Interleukin-4 from those culture conditions. The lower limit of detection sensitivity was 22 Units/ml.
Cells were cultured for a total of 96 hours. Cell culture supernatants were analyzed for IL-4 by ELISA. All values were after subtraction from those determined from supernatants of cells stimulated with 10 μg of an irrelevant protein (lysozyme). Results which were below the limit of detection, after subtraction from stimulation induced with lysozyme are indicated as “bd”. The adjuvants were 40 ng IL-12, 10 μg GM-CSF and 50 μg MPL™.

[3] = system: T1SP10MN(A) (−Cys); conditions: Experiment 3, 14 days after second immunization; for Reciprocal anti-HIV peptide IgG (GMT) endpoint titer: individual Swiss-Webster mice; for Reciprocal anti-HIV peptide IgG1 (pool) endpoint titer / Reciprocal anti-HIV peptide IgG2a (pool) endpoint titer: pooled serum Swiss-Webster
Protocol: (§3) The protocols of Experiment 2 were followed, with Swiss-Webster mice used instead of Balb/c mice. Only reciprocal anti-peptide IgG endpoint titers and vaginal lavage endpoint reciprocal endpoint IgG and IgA antibody titers were measured in this experiment.
Reciprocal anti-T1SP10MN(A) (−Cys) IgG endpoint titers were measured from geometric means from individual Swiss-Webster mice (GMT), obtained 14 days after the second immunization. IgG1 and IgG2a subclass endpoint titers were also measured from pooled serum. For recipients of Freund's adjuvants, mice were primed with peptide emulsified in CFA, and boosted with IFA. […] Aqueous MPL™ was delivered at 50 μg per dose. Recombinant murine IL-12 was delivered at 40 ng/mouse. Recombinant murine GM-CSF was delivered at 10 μg/mouse.

[4] = system: T1SP10MN(A) (−Cys); conditions: Experiment 3; pooled, n=5 Swiss-Webster; 15 days after secondary immunization
Protocol: as §3
Aqueous MPL™ was delivered at 50 μg per dose. Recombinant murine IL-12 was delivered at 40 ng/mouse. Recombinant murine GM-CSF was delivered at 10 μg/mouse.

[5] = system: spleen cells; assay type: cell-based, Balb/c mice; conditions: for Spleen cell proliferation index normalized to ConA, Con A 5 μg/ml / Spleen cell proliferation index normalized to ConA, HIV Peptide 1.1 μg/ml / Spleen cell proliferation index normalized to ConA, HIV Peptide 3.3 μg/ml / Spleen cell proliferation index normalized to ConA, HIV Peptide 10 μg/ml / Spleen cell proliferation index normalized to ConA, Lysozyme 10 μg/ml: Experiment 2, 96 hours culture; for Spleen cell proliferation index normalized to ConA, HIV Peptide 1.1 μg/ml / Spleen cell proliferation index normalized to ConA, HIV Peptide 3.3 μg/ml / Spleen cell proliferation index normalized to ConA, HIV Peptide 10 μg/ml / Spleen cell proliferation index normalized to ConA, Lysozyme 10 μg/ml: values in parentheses are less than unstimulated cells; for Spleen cell proliferation, Con A 1 μg/ml / Spleen cell proliferation, HIV Peptide 1.1 μg/ml / Spleen cell proliferation, HIV Peptide 3.3 μg/ml / Spleen cell proliferation, HIV Peptide 10 μg/ml: Experiment 1, immunized days 0 and 28, culture day 56, 96 hours
Protocol: as §1
Groups of five Balb/c female mice were immunized with 25 μg T1SP10MN(A) (−Cys) and the indicated adjuvants on days 0 and 28. Spleen cells were established in culture on day 56, and harvested for measurement of ^3H-thymidine incorporation 96 hours later. Mice were immunized with 50 ng IL-12, […], 50 μg MPL™ in an aqueous formulation, or as a stable emulsion with 2% SE. Data are presented as the delta cpm values as compared to proliferation values measured from cells grown in culture without stimulation.
Cells were cultured for a total of 96 hours. ^3H-thymidine was added to cultures for the last 18 hours. Data are presented as a proliferation index normalized to cells stimulated in culture with ConA ([mean cpm Antigen/mean cpm ConA]−[mean cpm medium/mean cpm ConA])×100. As a result, cells cultured in medium have a background proliferation of 0. Proliferation values less than cells grown in culture unstimulated are in parentheses.

[6] = Three Day Cultures, detection limit 4 picograms/ml

Molecule	Secretion of Interferon-gamma, Con A 5 μg/ml [1]	Secretion of Interferon-gamma, HIV Peptide 1.1 μg/ml [1]	Secretion of Interferon-gamma, HIV Peptide 3.3 μg/ml [1]	Secretion of Interferon-gamma, HIV Peptide 10 μg/ml [1]	Secretion of IL-4, Con A 5 μg/ml [2]	Secretion of IL-4, HIV Peptide 1.1 μg/ml [2]	Secretion of IL-4, HIV Peptide 3.3 μg/ml [2]	Secretion of IL-4, HIV Peptide 10 μg/ml [2]	Reciprocal anti-HIV peptide IgG (GMT) endpoint titer [3]	Reciprocal anti-HIV peptide IgG1 (pool) endpoint titer [3]	Reciprocal anti-HIV peptide IgG2a (pool) endpoint titer [3]	Vaginal lavage reciprocal anti-HIV peptide IgA endpoint titer [4]	Vaginal lavage reciprocal anti-HIV peptide IgG endpoint titer [4]	Spleen cell proliferation index normalized to ConA, Con A 5 μg/ml [5]	Spleen cell proliferation index normalized to ConA, HIV Peptide 1.1 μg/ml [5]	Spleen cell proliferation index normalized to ConA, HIV Peptide 3.3 μg/ml [5]	Spleen cell proliferation index normalized to ConA, HIV Peptide 10 μg/ml [5]	Spleen cell proliferation index normalized to ConA, Lysozyme 10 μg/ml [5]	Secretion of Interferon-gamma, Con A 1 μg/ml ([1]; Six Day Cultures)	Secretion of Interferon-gamma, Con A 1 μg/ml [1, 6]	other results
3-O-deacylated monophosphoryl lipid A [MPL ™]	203 units/ml	bd	bd	5 units/ml	286 pg/mL	17 pg/mL	bd	5 pg/mL	1,960	<1000	<1000	<10	<10	99.2	0.5	1.4	1.0	0.4			
B1	179 units/ml	41 units/ml	2 units/ml	4 units/ml	411 pg/mL	15 pg/mL	bd	bd	500	<1000	<1000	<10	<10	99.1	0.5	0.2	0.2	0.2	8.4 picograms/ml	5.9 picograms/ml	Secretion of IL-4, Con A 1 μg/ml [2]: 156 Units/ml; Spleen cell proliferation, Con A 1 μg/ml [5]: 42,612 delta cpm; Spleen cell proliferation, HIV Peptide 1.1 μg/ml [5]: 308 delta cpm; Spleen cell proliferation, HIV Peptide 3.3 μg/ml [5]: 692 delta cpm; Spleen cell proliferation, HIV Peptide 10 μg/ml [5]: 809 delta cpm
B2	167 units/ml	4 units/ml	3 units/ml	2 units/ml	226 pg/mL	36 pg/mL	9 pg/mL	bd	500	<1000	<1000	<10	<10	99.0	1.6	2.7	6.8	0.1	7.3 picograms/ml	17.6 picograms/ml	Secretion of IL-4, Con A 1 μg/ml [2]: 159 Units/ml; Spleen cell proliferation, Con A 1 μg/ml [5]: 55,578 delta cpm; Spleen cell proliferation, HIV Peptide 1.1 μg/ml [5]: 14,249 delta cpm; Spleen cell proliferation, HIV Peptide 3.3 μg/ml [5]: 19,784 delta cpm; Spleen cell proliferation, HIV Peptide 10 μg/ml [5]: 25,821 delta cpm

From patent US7611721B1, “Adjuvant combination formulations” (priority 2000, dated 2009)
